Assay results published in PMC5603541.

Test system: BoHV-1 whole virus (purified virion) (Bovine herpesvirus 1 (BK1952, CVCC; Methods also says field isolate from China))
Assay: ELONA

## GCTGCAATACTCATGGACAGGGCGGCGGGGTGGGGTGGGCGGTTTGATTCCCATGGGTGCGTCTGGAGTACGACCCTGAA [IBRV-A4]
  Kd: 3.52 nM
